B1: E3 ubiquitin-protein ligase CBL-B (Homo sapiens), Q13191 (parent)
chain: MANSMNGRNPGGRGGNPRKGRILGIIDAIQDAVGPPKQAAADRRTVEKTWKLMDKVVRLCQNPKLQLKNSPPYILDILPDTYQHLRLILSKYDDNQKLAQLSENEYFKIYIDSLMKKSKRAIRLFKEGKERMYEEQSQDRRNLTKLSLIFSHMLAEIKAIFPNGQFQGDNFRITKADAAEFWRKFFGDKTIVPWKVFRQCLHEVHQISSGLEAMALKSTIDLTCNDYISVFEFDIFTRLFQPWGSILRNWNFLAVTHPGYMAFLTYDEVKARLQKYSTKPGSYIFRLSCTRLGQWAIGYVTGDGNILQTIPHNKPLFQALIDGSREGFYLYPDGRSYNPDLTGLCEPTPHDHIKVTQEQYELYCEMGSTFQLCKICAENDKDVKIEPCGHLMCTSCLTAWQESDGQGCPFCRCEIKGTEPIIVDPFDPRDEGSRCCSIIDPFGMPMLDLDDDDDREESLMMNRLANVRKCTDRQNSPVTSPGSSPLAQRRKPQPDPLQIPHLSLPPVPPRLDLIQKGIVRSPCGSPTGSPKSSPCMVRKQDKPLPAPPPPLRDPPPPPPERPPPIPPDNRLSRHIHHVESVPSRDPPMPLEAWCPRDVFGTNQLVGCRLLGEGSPKPGITASSNVNGRHSRVGSDPVLMRKHRRHDLPLEGAKVFSNGHLGSEEYDVPPRLSPPPPVTTLLPSIKCTGPLANSLSEKTRDPVEEDDDEYKIPSSHPVSLNSQPSHCHNVKPPVRSCDNGHCMLNGTHGPSSEKKSNIPDLSIYLKGDVFDSASDPVPLPPARPPTRDNPKHGSSLNRTPSDYDLLIPPLGEDAFDALPPSLPPPPPPARHSLIEHSKPPGSSSRPSSGQDLFLLPSDPFVDLASGQVPLPPARRLPGENVKTNRTSQDYDQLPSCSDGSQAPARPPKPRPRRTAPEIHHRKPHGPEAALENVDAKIAKLMGEGYAFEEVKRALEIAQNNVEVARSILREFAFPPPVSPRLNL

Variants of: B1
Conditions: with sh3k1_human SH3KBP1, Q96B97
Sequence of sh3k1_human SH3KBP1, Q96B97 (Q96B97 whole entry): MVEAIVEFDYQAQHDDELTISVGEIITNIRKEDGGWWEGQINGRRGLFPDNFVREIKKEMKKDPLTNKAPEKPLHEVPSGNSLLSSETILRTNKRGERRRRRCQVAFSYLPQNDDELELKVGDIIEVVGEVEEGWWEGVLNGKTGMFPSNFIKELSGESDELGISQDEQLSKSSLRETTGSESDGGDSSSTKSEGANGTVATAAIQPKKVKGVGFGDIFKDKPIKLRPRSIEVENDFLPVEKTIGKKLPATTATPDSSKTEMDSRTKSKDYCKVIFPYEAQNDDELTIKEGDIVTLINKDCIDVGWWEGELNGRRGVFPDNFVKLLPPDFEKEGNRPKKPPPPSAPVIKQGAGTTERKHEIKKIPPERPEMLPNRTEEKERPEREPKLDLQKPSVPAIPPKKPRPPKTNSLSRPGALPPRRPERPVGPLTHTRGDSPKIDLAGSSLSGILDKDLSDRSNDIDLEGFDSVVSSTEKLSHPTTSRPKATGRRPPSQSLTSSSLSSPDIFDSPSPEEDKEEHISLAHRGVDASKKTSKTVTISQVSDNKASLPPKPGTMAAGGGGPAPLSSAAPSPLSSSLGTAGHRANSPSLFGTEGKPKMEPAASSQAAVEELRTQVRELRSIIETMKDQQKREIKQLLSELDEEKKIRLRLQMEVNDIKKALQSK

| Variant | effect of a mutation on the interaction |
| --- | --- |
| R911A | decreasing interaction |

Reference: IntAct's records for PubMed 12829691
